Assays:
[1] = biological target: T1, human B7-H7 on the cell surface (human, UniProt Q9UM44 23-414); assay: flow cytometry, HCC827 cells
T1 construct: whole, on cells; also called hB7-H7; hu B7-H7
T1 sequence (looked up): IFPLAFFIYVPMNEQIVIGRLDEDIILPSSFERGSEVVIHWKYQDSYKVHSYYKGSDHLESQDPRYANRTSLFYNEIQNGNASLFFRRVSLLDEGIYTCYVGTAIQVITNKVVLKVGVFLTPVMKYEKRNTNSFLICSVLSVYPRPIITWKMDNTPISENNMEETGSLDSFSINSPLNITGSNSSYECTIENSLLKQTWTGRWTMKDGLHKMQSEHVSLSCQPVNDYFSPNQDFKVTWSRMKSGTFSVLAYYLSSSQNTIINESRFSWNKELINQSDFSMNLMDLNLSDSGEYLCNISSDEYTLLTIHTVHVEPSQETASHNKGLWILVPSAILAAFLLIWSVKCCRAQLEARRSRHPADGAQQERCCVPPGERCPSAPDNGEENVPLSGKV
Description: (§1) This example was intended to study the in vitro activity of H2L2 monoclonal antibodies against human B7-H7 in binding to human/cynomolgus monkey B7-H7. Since homologous molecules of B7-H7 were not present in mice, the detection was not performed. […] The cells were adjusted to a cell density of 1×10⁶ cells/mL, respectively. The cells were seeded in a 96-well V-bottom plate (Corning, #3894) at 100 μL/well, and the antibody to be tested at 2× final concentration with 3-fold concentration gradient dilution was then added at 100 μL/well. The cells were incubated at 4° C. for 2 hours in the dark. After the incubation, the cells were rinsed twice by adding pre-chilled PBS containing 2% BSA at 100 μl/well, and centrifuged at 500 g at 4° C. for 5 minutes, and the supernatant was discarded. […] The cells were washed twice by adding pre-chilled PBS containing 2% BSA at 100 μL/well, and centrifuged at 500 g at 4° C. for 5 minutes, and the supernatant was discarded. Finally, the cells were resuspended in pre-chilled PBS containing 2% BSA at 200 μL/well, and the fluorescence signal values were read using an ACEA Novocyte3000 flow cytometer.

[2] = biological target: T1, human B7-H7 on the cell surface; assay: flow cytometry, HEK-293/hu B7-H7 cells
Description: as §1

[3] = biological target: T2, cynomolgus monkey B7-H7 on the cell surface (cynomolgus monkey); assay: flow cytometry, HEK-293/cyno B7-H7 cells
T2 construct: whole, on cells; also called cyno B7-H7
Description: as §1

[4] = biological target: T3, biotinylated human B7-H7 protein (Acro Biosystems, B77-H82F5) (human, UniProt Q9UM44 23-344, biotinylated); assay: flow cytometry, blocking of biotinylated human B7-H7 binding to HEK-293/CD28H cells
T3 construct: Bought soluble protein; also called biotin-B7H7 protein
T3 sequence (looked up): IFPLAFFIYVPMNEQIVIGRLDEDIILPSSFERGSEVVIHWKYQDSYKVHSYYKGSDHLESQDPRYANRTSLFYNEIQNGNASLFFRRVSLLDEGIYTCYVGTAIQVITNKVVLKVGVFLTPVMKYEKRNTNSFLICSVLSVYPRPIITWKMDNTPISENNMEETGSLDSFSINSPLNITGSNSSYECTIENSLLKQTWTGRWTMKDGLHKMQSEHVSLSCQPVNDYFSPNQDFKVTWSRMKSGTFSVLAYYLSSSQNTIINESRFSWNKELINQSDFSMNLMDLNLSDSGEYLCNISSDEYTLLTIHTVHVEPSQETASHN
Description: This example was intended to study the in vitro blocking activity of human anti-B7-H7 antibodies against the binding of human B7-H7 to its receptor CD28H. […] The cells were adjusted to a cell density of 1×10⁶ cells/mL. […] The cells were incubated at 4° C. for 1 hour in the dark. […] The cells were rinsed twice by adding pre-chilled PBS containing 2% BSA at 100 μL/well, and were centrifuged at 500 g at 4° C. for 5 minutes, and the supernatant was discarded. A fluorescent secondary antibody (PE Streptavidin, BD, Cat #: 554061, 1:200) was added at 100 μL/well, and the cells were incubated at 4° C. for 30 minutes in the dark. The cells were washed twice by adding pre-chilled PBS at 200 μL/well, and centrifuged at 500 g at 4° C. for 5 minutes, and the supernatant was discarded. Finally, the cells were resuspended in pre-chilled PBS at 200 μL/well, and the fluorescence signal values were read using an ACEA Novocyte3000 flow cytometer. IC50 was calculated.

[5] = biological target: T3, biotinylated human B7-H7 protein (Acro …); assay: flow cytometry, blocking of biotinylated human B7-H7 binding to CHO-K1/KIR3DL3 cells
Text: This example was intended to study the in vitro blocking activity of human anti-B7-H7 antibodies against the binding of human B7-H7 to its receptor KIR3DL3. A CHO-K1 cell (CHO-K1/KIR3DL3, Harbour BioMed US, Inc.) overexpressing human KIR3DL3 was used in experiments at the cellular level where human B7-H7/human KIR3DL3 binding was blocked. Briefly, the CHO-K1/KIR3DL3 cells were digested and resuspended in PBS containing 2% BSA. The cells were adjusted to a cell density of 1×10⁶ cells/mL. […] The cells were incubated at 4° C. for 1 hour in the dark. […] The cells were rinsed twice by adding pre-chilled PBS containing 2% BSA at 100 μL/well, and were centrifuged at 500 g at 4° C. for 5 minutes, and the supernatant was discarded. A fluorescent secondary antibody (PE Streptavidin, BD, Cat #: 554061, 1:200) was added at 100 μL/well, and the cells were incubated at 4° C. for 30 minutes in the dark. The cells were washed twice by adding pre-chilled PBS at 200 µL/well, and centrifuged at 500 g at 4° C. for 5 minutes, and the supernatant was discarded. Finally, the cells were resuspended in pre-chilled PBS at 200 μL/well, and the fluorescence signal values were read using an ACEA Novocyte3000 flow cytometer. IC50 was calculated.

[6] = biological target: T4, human B7-H7 recombinant protein (human, UniProt Q9UM44 23-344); assay: BLI (Octet), antibody captured on AHC sensor, human B7-H7 in solution, 1:1 global fit
T4 construct: also called human B7-H7 protein
T4 sequence (looked up): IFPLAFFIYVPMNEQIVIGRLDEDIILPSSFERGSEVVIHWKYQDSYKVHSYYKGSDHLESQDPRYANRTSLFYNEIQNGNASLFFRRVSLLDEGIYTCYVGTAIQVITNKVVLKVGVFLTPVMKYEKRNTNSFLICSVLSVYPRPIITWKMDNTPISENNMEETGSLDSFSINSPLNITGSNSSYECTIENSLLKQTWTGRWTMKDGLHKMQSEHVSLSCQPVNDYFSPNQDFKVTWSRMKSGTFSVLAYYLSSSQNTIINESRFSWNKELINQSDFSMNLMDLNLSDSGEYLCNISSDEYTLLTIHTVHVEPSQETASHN
Description: The binding kinetics between antigen and antibody was analyzed using an Octet Red 96e (Fortebio) molecular interaction analyzer by biolayer interferometry (BLI) technology.
For determining the affinity of antibodies for antigens, the rotary speed of the sensor was set at 1000 rpm. AHC sensors (Fortebio, #18-5060) placed in one column were first equilibrated in a test buffer for 10 minutes, and then used to capture the anti-B7-H7 antibodies at a capture height of 0.7 nm; and after being equilibrated in the buffer for 120 s, the AHC sensors bound to human B7-H7 (concentrations: 50-3.125 nM and 0 nM) with 2-fold gradient dilution for 180 s and dissociated for 300 s. The AHC sensors were finally regenerated by immersing in a 10 mM glycine-hydrochloric acid solution with pH 1.5 to elute the protein bound to the sensors.
For data analysis using Octet Data Analysis software (Fortebio, version 11.0), 0 nM well was used as the reference well, reference subtraction was performed, “1:1 Global fitting” method was selected for data fitting, the kinetic parameters of the binding of the antigen to the antigen-binding protein were calculated, and the kₒₙ (1/Ms) value, kdis (1/s) value and KD (M) value were obtained.

[7] = biological target: T3, biotinylated human B7-H7 protein (Acro …); assay: BLI epitope competition on SA-captured biotinylated B7-H7; competitor (first antibody) PR003249
Description: Epitope competition experiments were performed on the anti-B7-H7 antibodies using the ForteBio Octet Red96e platform with the same experimental buffer as described above. […] After being equilibrated in a buffer for 120 s, the sensors were immersed in various antibodies diluted to 100 nM for 240 s, and the final signal of the antibody binding to B7-H7 was recorded as the 100% signal for that antibody. Second step, epitope competition experiment: B7-H7 was captured using SA sensors at a capture height of 0.25 nm. The sensors were immersed in a first antibody (concentration: 100 nM) for 240 s, then the SA sensors were immersed in a mixture of the first antibody and a second antibody (final concentration of both antibodies: 100 nM) for 240 s, and the difference in signals before and after immersing the sensors in the mixture of the two antibodies was recorded as the signal for that antibody as the second antibody. The inhibition rate was calculated by the following equation, […]

B1: PR003250 (antibody, human IgG1, kappa, V domains shown)
VH: QVQLVESGGGVVQPGRSLRLSCAASGFTFSDYGIHWVRQAPGKGLEWVAVIWYDGSDKYYADSVRGRFTISRDNSKNTLSLQMNSLRAEDTAVYYCARDRSSGAMGYFAYWGQGTLVTVSS
VL: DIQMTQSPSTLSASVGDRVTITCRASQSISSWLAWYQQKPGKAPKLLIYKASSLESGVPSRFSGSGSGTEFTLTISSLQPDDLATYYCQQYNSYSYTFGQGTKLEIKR
notes: Human IgG1; also called 34G2E6
[1]
  EC50: 0.00294 nM
  Maximum MFI: 68800 MFI
[2]
  EC50: 0.995 nM
  Maximum MFI: 823000 MFI
[3]
  EC50: 0.399 nM
  Maximum MFI: 405000 MFI
[4]
  IC50: 1.41 nM
  Maximum inhibition rate (%): 101%
[5]
  IC50: 8.49 nM
  Maximum inhibition rate (%): 97.2%
[6]
  Kd: 2.91 nM
  koff: 0.000271 s⁻¹
  kon: 93200 M⁻¹ s⁻¹
[7]
  Competitive inhibition rate (%): 103%

B2: PR003248 (antibody, human IgG1, kappa, V domains shown)
VH: QVQLVESGGGVVQPGRSLRLSCAASGFTFSDYGLHWVRQAPGRGLEWVAVIWYDGSEEYYADSVKGRFTISRDNSKKSLYLQMNSLRAEDTAVYFCARDRNSGALGYFPHWGQGTLVTVSS
VL: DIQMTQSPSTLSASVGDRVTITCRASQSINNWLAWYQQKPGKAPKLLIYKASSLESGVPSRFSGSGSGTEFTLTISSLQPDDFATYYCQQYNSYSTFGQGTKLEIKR
notes: Human IgG1, fully human, from Harbour H2L2 mice; also called 13D8D2
[1]
  EC50: 0.0399 nM
  Maximum MFI: 68600 MFI
[2]
  EC50: 1.81 nM
  Maximum MFI: 981000 MFI
[3]
  EC50: 8.51 nM
  Maximum MFI: 698000 MFI
[4]
  IC50: 1.87 nM
  Maximum inhibition rate (%): 101%
[5]
  IC50: 12.9 nM
  Maximum inhibition rate (%): 99.3%
[6]
  Kd: 1.6 nM
  koff: 0.00014 s⁻¹
  kon: 88000 M⁻¹ s⁻¹
[7]
  Competitive inhibition rate (%): 108%

B3: PR003266 (antibody, human IgG1, kappa, V domains shown)
VH: QVQLVESGGGVVQPGRSLRLSCAASGFTFSDYGMHWVRQAPGKGLEWVAIIWYDGSNKYYADSVKGRFTISRDNSKNTLYLQMNSLRAEDTAVYYCARDRSSGALGYFQHWGQGTLVTVSS
VL: not shown
notes: Human IgG1; also called 7D3D2
[1]
  EC50: 0.0477 nM
  Maximum MFI: 49300 MFI
[2]
  EC50: 0.663 nM
  Maximum MFI: 531000 MFI
[3]
  EC50: 0.211 nM
  Maximum MFI: 170000 MFI
[4]
  IC50: 1.57 nM
  Maximum inhibition rate (%): 101%
[5]
  IC50: 8.55 nM
  Maximum inhibition rate (%): 102%
[6]
  Kd: 9.93 nM
  koff: 0.000648 s⁻¹
  kon: 65200 M⁻¹ s⁻¹
[7]
  Competitive inhibition rate (%): 107%
